Assay [1] concerns the target T1, human RYK on the surface of human tumor cell lines (human, UniProt P34925 46-607).
T1 construct: whole, on cells; Endogenous expression
Briefly: flow cytometry, NCI H929 cells (melanoma as printed), 5 ug/ml 2-D11-Alexa647; line unmarked (no staining). The method, then:
(§1) Table 1 provides the flow cytometry data on various cancer cell lines stained with fluorochrome-conjugated 2-D11, as depicted in FIG. 8. The name of each cell line is listed in the first column and the tissue of origin is listed in the second column. Binding of the 2-D11 mAb to human RYK was assessed by flow cytometric staining and analysis by staining on ice for 20 minutes with 5 μg/ml of 2-D11 anti-human RYK-Alexa647 conjugated mAb or equal amounts of isotype matched control mAb, washed, and analyzed. The median fluorescence intensity (MFI) of 2-D11 stained cells is listed in the middle column and the MFI of isotype control stained cells are listed in the in the adjacent column. Cell lines were scored as “++”, “+”, or neg (unmarked with “+”) lines based on the ratio of median fluorescence intensity (MFI) of stained cells relative to the MFI of isotype control stained cells (MFIR).
(§2) The name of each cell line is listed in the first column and the tissue of origin is listed in the second column. Binding of the 2-D11 mAb to human RYK was assessed by flow cytometric staining and analysis by staining on ice for 20 minutes with 5 μg/ml of 2-D11 anti-human RYK-Alexa647 conjugated mAb or equal amounts of isotype matched control mAb, washed and analyzed. […]

In assay [2] the target is T1, human RYK on the surface of human tumor …. Put plainly: flow cytometry, CAPAN-2 cells (pancreas), 5 ug/ml 2-D11-Alexa647; line unmarked (no staining). The method, then:
as §1, §2
(A flow cytometer gives signals particle by particle.)

Assay [3] shares this target. Briefly: flow cytometry, EW36 cells (NHL), 5 ug/ml 2-D11-Alexa647; line unmarked (no staining). The procedure: as §1, §2
For assay [4] the target is unchanged. Briefly: flow cytometry, HT29 cells (colon), 5 ug/ml 2-D11-Alexa647. The procedure:
as §1, §2

The target is the same in assay [5]. Briefly: flow cytometry, H292 cells (lung), 5 ug/ml 2-D11-Alexa647; line unmarked (no staining). The procedure: as §1, §2
Assay [6] shares this target. Briefly: flow cytometry, SK-MES-1 cells (lung), 5 ug/ml 2-D11-Alexa647; line unmarked (no staining). The procedure:
as §1, §2

Assay [7] has the same target. Briefly: flow cytometry, MOLT4 cells (T-cell ALL), 5 ug/ml 2-D11-Alexa647; line unmarked (no staining). The procedure: as §1, §2
Assay [8] shares this target. Put plainly: flow cytometry, BT549 cells (breast), 5 ug/ml 2-D11-Alexa647. The procedure: as §1, §2
For assay [9] the target is unchanged. Put plainly: flow cytometry, CAPAN-1 cells (pancreas), 5 ug/ml 2-D11-Alexa647. The method, then: as §1, §2
The target is the same in assay [10]. Briefly: flow cytometry, A549 cells (lung), 5 ug/ml 2-D11-Alexa647. The procedure:
as §1, §2

Assay [11] deals with T2, recombinant extracellular protein of mouse RYK (mouse, UniProt Q01887 35-211).
T2 construct: also called mRYK; not shown: rabbit IgG tag for purification
Briefly: immunoblot of recombinant extracellular protein on nylon membrane. The method, then: FIG. 4A illustrates experiments in which binding of 2-D11, 7-H10, 3-C12, 11-E9, 6-B5, 6-D10 and sheep anti-RYK mAb was assessed using recombinant human RYK proteins (SEQ ID NO:129) in which one amino acid that differs between human and mouse RYK within the extracellular domain was replaced with the corresponding amino acid of mouse RYK. Each recombinant protein was transferred onto nylon membrane, probed with the indicated anti-RYK mAb or Sheep anti-RYK Ab, and detected with an anti-mouse IgG or donkey-anti-sheep antibody conjugated with horse radish peroxidase. […]
The anti-human RYK mAbs, 2-D11 and 7-H10, appear specific for an amino terminal epitope of human Ryk (residues 46-57) that are distinct from those in mouse Ryk (FIG. 3); these mAbs also bind mutant forms of Ryk containing amino acid substitutions in human Ryk at positions that differ from that of the highly homologous mouse Ryk to assimilate mouse Ryk at the site of substitution, with amino acid sequence shown in FIG. 3, as shown by immunoblot analyses of recombinant extracellular proteins of human or mouse or each of the various mutant forms of human Ryk (FIG. 4) For this, the binding of 2-D11, 7-H10, or Sheep anti-RYK mAb was assessed using recombinant extracellular RYK proteins as specified in the Key. […]

T1 sequence (P34925 46-607 limits assumed, form in doubt): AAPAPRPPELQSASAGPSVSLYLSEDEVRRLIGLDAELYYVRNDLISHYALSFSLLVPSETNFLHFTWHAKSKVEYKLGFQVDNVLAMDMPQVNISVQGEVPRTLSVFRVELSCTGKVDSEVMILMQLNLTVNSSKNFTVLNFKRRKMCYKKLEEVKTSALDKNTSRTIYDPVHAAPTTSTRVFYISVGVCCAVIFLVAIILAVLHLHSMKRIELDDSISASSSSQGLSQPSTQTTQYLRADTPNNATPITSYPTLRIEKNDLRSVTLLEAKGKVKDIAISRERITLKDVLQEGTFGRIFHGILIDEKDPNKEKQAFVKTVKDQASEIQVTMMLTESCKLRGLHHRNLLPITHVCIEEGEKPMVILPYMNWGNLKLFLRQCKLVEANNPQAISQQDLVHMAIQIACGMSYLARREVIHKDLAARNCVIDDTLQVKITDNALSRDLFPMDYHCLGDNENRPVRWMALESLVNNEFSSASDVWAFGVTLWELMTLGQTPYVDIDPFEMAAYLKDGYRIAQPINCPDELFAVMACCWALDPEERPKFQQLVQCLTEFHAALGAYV
T2 sequence (Q01887 35-211): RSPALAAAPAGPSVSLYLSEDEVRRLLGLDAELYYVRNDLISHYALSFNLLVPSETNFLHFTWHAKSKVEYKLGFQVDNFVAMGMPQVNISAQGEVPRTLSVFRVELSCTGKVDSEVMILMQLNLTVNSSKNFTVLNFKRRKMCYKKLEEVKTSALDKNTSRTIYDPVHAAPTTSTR

B1: 2-D11 anti-human RYK mAb (antibody, V domains shown)
VH: QVQLKESGPGLVAPSQSLSITCSVSGFSLNDYGVNWVRQPPGKDLEWLGMIWGDGVTEYNSTLKSRLSISKDNSKSQVFLKMNNLQTEDTARYYCVRQGSGVWFAHWGQGTLVSVSS
VL: DVLVTQTPLSLPVSLGDQASISCRSSQTIVHSNGNTYLEWYLQKPGQSPKLLIYKVSNRFSGVPDRFSGSGSGTDFTLKISRVEAEDLGIYYCFQGSHVPYTFGGGTKLEIK
notes: Mouse hybridoma mAb, kappa light chain, detected with anti-mouse IgG; also called mAb 2-D11; 2-D11 anti-human RYK-Alexa647 conjugated mAb
With B1, the “MFIR (MFI ratio to isotype control)” value in assay [1] came to 1.2; in assay [2] it was 1.3; in assay [3], 1.1; in assay [4], 2.2; in assay [5], 1.3; in [6], 1.1. The “MFIR (MFI ratio to isotype control)” value in assay [7] is 0.9; in assay [8] it was 3.9; in assay [9], 1.5; in assay [10], 1.5. For the same molecule, the binding result in [11] was “no binding”.
